Literature values as cited in publication PMC4501269 (Biochemistry, 2011).
Where two headings read alike, the source gives them in different places.

Tests used:
[1] = system: PPARγ
[2] = target: SRC-1 (Homo sapiens) (UniProt Q15788)
[3] = target: SRC-1 (Homo sapiens) (UniProt Q15788); remark: listed apart in the source
[4] = target: SRC-2 (Homo sapiens) (UniProt Q15596); assay: fluorescence cross-correlation spectroscopy
[5] = target: SRC-2 (Homo sapiens) (UniProt Q15596); assay: fluorescence cross-correlation spectroscopy; remark: listed apart in the source
[6] = target: SRC-2 (Homo sapiens) (UniProt Q15596); assay: fluorescence cross-correlation spectroscopy; remark: listed apart in the source
[7] = target: SRC-1 (Homo sapiens) (UniProt Q15788); assay: fluorescence polarization

Sequence of estrogen receptor (P03372 whole entry): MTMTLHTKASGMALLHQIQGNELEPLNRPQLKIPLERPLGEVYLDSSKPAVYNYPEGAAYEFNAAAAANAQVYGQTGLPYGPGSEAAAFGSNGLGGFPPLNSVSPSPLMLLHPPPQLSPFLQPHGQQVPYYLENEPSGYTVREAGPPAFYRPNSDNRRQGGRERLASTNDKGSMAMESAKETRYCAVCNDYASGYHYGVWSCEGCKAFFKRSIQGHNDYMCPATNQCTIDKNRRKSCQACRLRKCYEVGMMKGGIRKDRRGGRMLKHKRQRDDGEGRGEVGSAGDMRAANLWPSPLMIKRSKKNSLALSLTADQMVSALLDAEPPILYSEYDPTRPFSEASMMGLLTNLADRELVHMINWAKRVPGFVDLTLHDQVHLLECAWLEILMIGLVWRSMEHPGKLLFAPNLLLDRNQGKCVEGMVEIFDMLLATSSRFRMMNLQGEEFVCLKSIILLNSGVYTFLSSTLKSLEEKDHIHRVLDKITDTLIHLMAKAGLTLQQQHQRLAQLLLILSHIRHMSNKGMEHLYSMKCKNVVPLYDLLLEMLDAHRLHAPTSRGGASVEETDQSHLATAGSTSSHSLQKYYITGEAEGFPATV
Sequence of SRC-2 (Homo sapiens) (Q15596 2-1464): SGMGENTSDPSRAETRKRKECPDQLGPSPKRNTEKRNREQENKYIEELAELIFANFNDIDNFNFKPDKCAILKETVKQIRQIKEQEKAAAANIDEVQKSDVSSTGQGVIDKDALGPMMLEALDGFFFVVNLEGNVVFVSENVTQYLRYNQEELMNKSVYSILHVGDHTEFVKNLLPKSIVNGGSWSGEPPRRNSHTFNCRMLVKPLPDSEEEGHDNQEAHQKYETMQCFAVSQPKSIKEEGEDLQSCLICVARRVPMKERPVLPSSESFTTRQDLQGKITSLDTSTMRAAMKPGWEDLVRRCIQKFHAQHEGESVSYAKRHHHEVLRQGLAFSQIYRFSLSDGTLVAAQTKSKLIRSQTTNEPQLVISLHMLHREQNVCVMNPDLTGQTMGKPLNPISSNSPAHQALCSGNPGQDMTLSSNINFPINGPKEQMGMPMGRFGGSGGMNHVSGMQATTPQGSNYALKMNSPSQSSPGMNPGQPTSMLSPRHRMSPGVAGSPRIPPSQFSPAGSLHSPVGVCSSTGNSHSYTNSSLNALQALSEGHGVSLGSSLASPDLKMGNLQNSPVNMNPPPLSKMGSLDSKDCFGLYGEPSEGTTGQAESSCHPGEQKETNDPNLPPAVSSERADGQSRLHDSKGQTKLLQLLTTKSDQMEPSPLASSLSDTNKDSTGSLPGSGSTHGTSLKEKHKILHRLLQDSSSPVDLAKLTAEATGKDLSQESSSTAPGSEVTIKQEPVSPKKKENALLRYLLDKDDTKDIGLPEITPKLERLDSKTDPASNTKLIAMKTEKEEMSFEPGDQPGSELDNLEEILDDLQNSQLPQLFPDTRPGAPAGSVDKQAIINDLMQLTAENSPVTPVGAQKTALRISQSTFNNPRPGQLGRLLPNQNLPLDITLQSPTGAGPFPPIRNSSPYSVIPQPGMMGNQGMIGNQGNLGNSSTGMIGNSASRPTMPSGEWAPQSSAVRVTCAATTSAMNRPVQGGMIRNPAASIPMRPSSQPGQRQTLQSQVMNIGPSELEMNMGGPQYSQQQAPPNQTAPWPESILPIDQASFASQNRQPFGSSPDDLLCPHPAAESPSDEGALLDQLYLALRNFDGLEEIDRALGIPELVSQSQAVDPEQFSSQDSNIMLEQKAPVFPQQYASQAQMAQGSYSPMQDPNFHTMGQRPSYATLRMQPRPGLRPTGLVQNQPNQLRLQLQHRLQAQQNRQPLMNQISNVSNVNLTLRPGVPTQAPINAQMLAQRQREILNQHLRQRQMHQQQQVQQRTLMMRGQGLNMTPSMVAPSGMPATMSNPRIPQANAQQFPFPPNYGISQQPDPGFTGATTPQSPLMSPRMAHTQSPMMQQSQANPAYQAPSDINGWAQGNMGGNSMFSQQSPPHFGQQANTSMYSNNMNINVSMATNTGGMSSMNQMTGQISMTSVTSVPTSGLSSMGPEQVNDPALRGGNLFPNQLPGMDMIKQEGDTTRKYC
Sequence of SRC-1 (Homo sapiens) (Q15788 2-1441): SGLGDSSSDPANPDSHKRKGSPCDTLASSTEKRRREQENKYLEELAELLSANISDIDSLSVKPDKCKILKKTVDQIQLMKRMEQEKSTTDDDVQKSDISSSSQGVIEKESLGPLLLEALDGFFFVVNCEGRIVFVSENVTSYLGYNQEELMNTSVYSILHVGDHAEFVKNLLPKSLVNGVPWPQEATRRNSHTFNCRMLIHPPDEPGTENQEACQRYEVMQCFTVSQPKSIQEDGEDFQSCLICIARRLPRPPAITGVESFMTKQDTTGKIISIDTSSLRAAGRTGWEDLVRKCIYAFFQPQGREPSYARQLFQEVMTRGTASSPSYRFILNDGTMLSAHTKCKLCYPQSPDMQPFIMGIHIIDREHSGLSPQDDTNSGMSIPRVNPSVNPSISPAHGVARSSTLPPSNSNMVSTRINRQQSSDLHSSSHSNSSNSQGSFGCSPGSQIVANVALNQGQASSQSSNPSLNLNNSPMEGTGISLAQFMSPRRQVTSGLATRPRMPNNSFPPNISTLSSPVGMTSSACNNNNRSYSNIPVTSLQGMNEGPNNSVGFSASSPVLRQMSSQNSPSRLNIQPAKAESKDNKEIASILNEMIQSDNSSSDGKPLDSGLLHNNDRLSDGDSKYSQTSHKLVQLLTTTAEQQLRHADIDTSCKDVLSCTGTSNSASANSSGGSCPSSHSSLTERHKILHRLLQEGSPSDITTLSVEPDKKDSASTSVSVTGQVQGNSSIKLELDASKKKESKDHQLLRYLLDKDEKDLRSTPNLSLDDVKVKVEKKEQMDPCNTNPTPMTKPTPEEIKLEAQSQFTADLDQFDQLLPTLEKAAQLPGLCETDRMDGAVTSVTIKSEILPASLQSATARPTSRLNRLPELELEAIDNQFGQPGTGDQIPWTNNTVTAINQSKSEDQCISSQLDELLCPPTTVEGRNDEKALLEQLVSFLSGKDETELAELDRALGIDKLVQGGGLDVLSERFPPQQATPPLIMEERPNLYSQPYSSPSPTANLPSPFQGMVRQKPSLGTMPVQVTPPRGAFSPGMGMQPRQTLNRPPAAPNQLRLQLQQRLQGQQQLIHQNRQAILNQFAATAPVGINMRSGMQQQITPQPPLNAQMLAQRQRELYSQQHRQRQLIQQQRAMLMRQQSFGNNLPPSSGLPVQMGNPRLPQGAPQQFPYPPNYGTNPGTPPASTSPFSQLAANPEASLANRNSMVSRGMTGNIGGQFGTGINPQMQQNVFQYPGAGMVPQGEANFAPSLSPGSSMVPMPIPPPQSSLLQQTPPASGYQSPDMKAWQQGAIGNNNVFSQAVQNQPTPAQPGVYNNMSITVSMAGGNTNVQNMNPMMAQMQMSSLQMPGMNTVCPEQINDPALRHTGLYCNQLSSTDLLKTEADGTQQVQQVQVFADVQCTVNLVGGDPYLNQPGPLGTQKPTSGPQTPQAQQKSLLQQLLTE
Sequence of PPARγ (from UniProt P37231) (P37231 whole entry): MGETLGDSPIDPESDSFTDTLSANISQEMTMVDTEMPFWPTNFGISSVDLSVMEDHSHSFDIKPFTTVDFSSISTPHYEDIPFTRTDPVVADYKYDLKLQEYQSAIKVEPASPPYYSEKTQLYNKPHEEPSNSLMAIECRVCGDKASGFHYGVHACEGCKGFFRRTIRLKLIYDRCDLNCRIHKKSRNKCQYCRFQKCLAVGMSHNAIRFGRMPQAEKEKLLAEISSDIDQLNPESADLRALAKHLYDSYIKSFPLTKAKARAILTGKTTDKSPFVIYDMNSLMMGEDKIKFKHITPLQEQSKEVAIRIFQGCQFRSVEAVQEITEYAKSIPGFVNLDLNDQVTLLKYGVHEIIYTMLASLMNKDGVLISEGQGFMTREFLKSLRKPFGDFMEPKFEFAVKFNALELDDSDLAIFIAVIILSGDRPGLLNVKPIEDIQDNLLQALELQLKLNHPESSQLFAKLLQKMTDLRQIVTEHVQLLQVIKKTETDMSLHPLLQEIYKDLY
Sequence of estrogen receptor LBD (P03372 311-547): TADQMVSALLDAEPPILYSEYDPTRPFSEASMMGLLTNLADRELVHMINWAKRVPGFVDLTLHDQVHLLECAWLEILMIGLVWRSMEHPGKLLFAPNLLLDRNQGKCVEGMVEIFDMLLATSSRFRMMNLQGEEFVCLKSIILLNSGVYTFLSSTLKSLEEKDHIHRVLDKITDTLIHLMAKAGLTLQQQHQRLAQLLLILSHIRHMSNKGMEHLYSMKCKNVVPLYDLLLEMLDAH

**Q.** With `COc1ccc2c(c1)c(CC(=O)O)c(C)n2C(=O)c1ccc(Cl)cc1` [IDM, indomethacin] as the compound, how does the “increase in the affinity of PPARγ for SRC-1” value [1] read?
**A.** The value was 30 fold.

**Q.** With PPARγ (from UniProt P37231) as the compound, how does the Kd [2] read?
**A.** The Kd was 960 nM.

**Q.** And the Kd [3]?
**A.** The Kd was 34200 nM.

**Q.** Which Kd [4] does the source give for estrogen receptor (from UniProt P03372) here?
**A.** The Kd was 200 nM.

**Q.** And the Kd [5]?
**A.** The Kd was over 3000 nM.

**Q.** And the Kd [6]?
**A.** The Kd was under 6 nM.

**Q.** What about the Kd [7] of the same compound?
**A.** The Kd was 30 nM.

**Q.** For “estrogen receptor LBD (from UniProt P03372)”, which Kd [7] is on record?
**A.** Its Kd is 30 nM.
